US20250122306A1 (SUTRO BIOPHARMA, published 2025)

T1: cynomolgus tissue factor on HEK293T-cynoTF cells (cynomolgus monkey, UniProt P13726 33-294 (human entry))
T1 construct: stably transfected HEK293T cells
T1 chain: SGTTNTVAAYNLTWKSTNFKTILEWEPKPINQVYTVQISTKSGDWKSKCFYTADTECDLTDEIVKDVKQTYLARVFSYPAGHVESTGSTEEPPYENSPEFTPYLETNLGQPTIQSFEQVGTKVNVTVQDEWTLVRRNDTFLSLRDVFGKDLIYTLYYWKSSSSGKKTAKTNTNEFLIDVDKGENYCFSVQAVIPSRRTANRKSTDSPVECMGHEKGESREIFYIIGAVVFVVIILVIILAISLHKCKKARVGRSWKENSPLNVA

T2: cynomolgus tissue factor (cynomolgus TF, Sino Bio #90885-C08H) (cynomolgus monkey, UniProt P13726 33-251 (human entry))
T2 construct: bought recombinant antigen; also called cyno TF
T2 chain: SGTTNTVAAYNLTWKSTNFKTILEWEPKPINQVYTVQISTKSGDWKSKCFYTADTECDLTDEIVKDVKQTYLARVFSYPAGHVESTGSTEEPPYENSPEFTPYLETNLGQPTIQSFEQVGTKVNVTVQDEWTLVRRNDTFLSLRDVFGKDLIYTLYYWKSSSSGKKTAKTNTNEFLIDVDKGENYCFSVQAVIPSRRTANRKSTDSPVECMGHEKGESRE


Experiments:
[1] = molecular target: T1, cynomolgus tissue factor on …; assay: flow cytometry on HEK293T-cynoTF cells, one-site fit of MFI
Text: (§1) HEK293T, BxPC3 cells (TF positive) and NCI-H1703 (TF negative) cells were obtained from ATCC (American Type Culture Collection) and maintained in DMEM: F12 (1:1), high glucose (Corning) supplemented with 10% heat-inactivated fetal bovine serum (ThermoScientific), 1× Penicillin/Streptomycin (Corning) and 2 mmol glutamax (Thermo Fisher Scientific). To generate cells that stably expressing human tissue factor (HEK293T-humanTF) or cynomolgus tissue factor (HEK293T-cynoTF), HEK293T cells were transfected with plasmid vectors that contain the corresponding protein sequence and stable clones were selected with puromycin.
(§2) For a fluorescence-activated cell sorting (FACS) cell-binding assay, cells were collected by Accutase and counted by the Vi-CELL Cell Viability Analyzersharvested and, then re-suspended in FACS buffer (DPBS buffer supplemented with 1% bovine serum albumin). A total of 200,000 cells in 100 μL were incubated on ice with 100 μL of anti-TF antibodies in each well of a 96-well plate. Cells were washed twice with ice-cold FACS buffer and then incubated on ice for 60 mins with 5 μg/mL Alexa 647-labeled donkey anti-human Fc antibody (Jackson ImmunoResearch). Unstained cells and cells stained with secondary antibody alone were used as controls. Cells were washed twice with FACS buffer and analyzed using a BD FACS Canto system. Geometric mean fluorescence intensities (MFI) were fitted using non-linear regression analysis with one site specific binding equation on GraphPad Prism (GraphPad Software; La Jolla, CA).

[2] = molecular target: T3, human tissue factor on cells (human, UniProt P13726 33-295); assay: flow cytometry on HEK293T-humanTF cells, one-site fit of MFI
T3 construct: cell-surface TF, transfected (HEK293T-humanTF) or endogenous (tumour lines, keratinocytes); the cell line is named under assay; also called HEK293T-humanTF; TF on BxPC3, primary human keratinocytes, NCI-H292, HCC1954, NCI-H1975
Text: as §1, §2

[3] = molecular target: T4, human tissue factor (human TF, Lake Pharma) (human, UniProt P13726 33-251, limits assumed); assay: Biacore SPR kinetics, antibody captured on anti-Fc, 1:1 Langmuir fit
T4 construct: bought recombinant antigen; also called CD142
Procedure: (§3) Anti-Fc polyclonal antibodies were immobilized onto a CM4 chip (Cytiva #BR100534) using amine coupling chemistry (Human Antibody Capture Kit, Cytiva #BR100839). The immobilization steps were carried out at a flow rate of 25 μL/min in 1×HBS-EP+buffer (Cytiva #BR100669). The sensor surfaces were activated for 7 min with a mixture of N-hydroxysuccinimide (NHS, 0.05 M) and 1-ethyl-3-(3-dimethylaminopropyl)-carbodiimide (EDC, 0.2 M). The anti-Fc polyclonal antibodies were injected over all 4 flow cells at a concentration of 25 μg/mL in 10 mM sodium acetate, pH 4.5, for 7 min. Ethanolamine (1 M, pH 8.5) was injected for 7 min to block any remaining activated groups.
(§4) Off-rate and kinetic binding experiments were performed at 25° C. using 1×HBS-EP+buffer. Antibodies were injected over the anti-Fc surface at a concentration of 3 μg/mL for 12 seconds at a flow rate of 10 μL/min on flow cells 2, 3 and 4, followed by a buffer wash for 30 seconds at the same flow rate. Single point off-rate analysis was carried out using an antigen concentration of 100 nM. […] After capturing ligand (antibody) on the anti-Fc surface, the analyte (human TF, Lake Pharma; cynomolgus TF, Sino Bio #90885-C08H; mouse TF, R&D Systems #3178-PA) was bound for 180 seconds, followed by a 420 second dissociation phase at a flow rate of […]. Between each ligand capture and analyte binding cycle, regeneration was carried out using 2 injections of 10 mM glycine pH 2.0 for 30 seconds at 30 μL/min, followed by a 30 second buffer wash step.
(§5) The data were fit with the Biacore T200 Evaluation software, using a 1:1 Langmuir binding model. KD (affinity, nM) was determined as a ratio of the kinetic rate constants calculated from the fits of the association and dissociation phases.

[4] = molecular target: T2, cynomolgus tissue factor (cynomolgus …); assay: as above
Procedure: as §3, §4, §5

[5] = molecular target: T4, human tissue factor (human TF, Lake …); assay: Biacore SPR, single-point off-rate (100 nM antigen), antibody captured on anti-Fc
Procedure: as §3, §4

[6] = molecular target: T2, cynomolgus tissue factor (cynomolgus …); assay: as above
Procedure: as §3, §4

[7] = molecular target: T3, human tissue factor on cells; assay: flow cytometry on BxPC3 cells (TF positive), one-site fit of MFI
Text: as §1, §2

[8] = molecular target: tissue factor reagent of the Tissue Factor Activity Assay Kit (Abcam #ab108906) (UniProt P13726 33-295, limits assumed); assay: cell-based or functional assay

| Binder | Bmax (MFI) [1] | Kd [1] | Bmax (MFI) [2] | Kd [2] | Kd [3] | koff [3] | kon [3] | Kd [4] | koff [4] | kon [4] | koff [5] | koff [6] | Bmax (MFI) [7] | Kd [7] | FX conversion (% inhibition), 1000 nM antibody [8] |
| --- | --- | --- | --- | --- | --- | --- | --- | --- | --- | --- | --- | --- | --- | --- | --- |
| mAb 44: aTF_2900-F09_HC_Y180/F404TAG_SerOpt; Trastuzumab LC SerOpt (antibody, human IgG1, kappa, V domains shown, non-natural amino acid (pAMF) at TAG sites Y180 and F404 (EU), * in the sequence, unconjugated full-length IgG1/kappa) VH: EVQLVESGGGLVQPGGSLRLSCAASGFTIHDYVIHWVRQAPGKGLEWVGYIDPSNGYTYYADSVKGRFTISADTSKNTAYLQMNSLRAEDTAVYYCARDDQSISSPLDYWGQGTLVTVSS VL: not shown | 429000 MFI | 29 nM | 296000 MFI | 0.9 nM | 5.42 nM | 0.00196 s⁻¹ | 362000 M⁻¹ s⁻¹ | 18.9 nM | 0.00309 s⁻¹ | 164000 M⁻¹ s⁻¹ | – | – | – | – | – |
| mAb 45: aTF_2900-H06_HC_Y180/F404TAG_SerOpt; Trastuzumab LC SerOpt (antibody, human IgG1, kappa, V domains shown, non-natural amino acid (pAMF) at TAG sites Y180 and F404 (EU), * in the sequence, unconjugated full-length IgG1/kappa) VH: EVQLVESGGGLVQPGGSLRLSCAASGFTIAAYIIHWVRQAPGKGLEWVGYIDPSNGYTYYADSVKGRFTISADTSKNTAYLQMNSLRAEDTAVYYCARDDQSFSSPFDYWGQGTLVTVSS VL: not shown | 441000 MFI | 7.5 nM | 302000 MFI | 1.3 nM | 7.78 nM | 0.00426 s⁻¹ | 547000 M⁻¹ s⁻¹ | 0.255 nM | 0.000309 s⁻¹ | 1.21e+06 M⁻¹ s⁻¹ | – | – | – | – | – |
| mAb 47: aTF_2842-B01_HC3_Y180/F404TAG; aTF_2842-B01_LC1 (antibody, IgG1, V domains shown, non-natural amino acid (pAMF) at TAG sites Y180 and F404 (EU), * in the sequence, unconjugated full-length IgG1/kappa; also called 2842-B01 HC3/LC1) VH: EVQLVESGGGLVQPGGSLRLSCAASGFSISSYDMSWVRQAPGKGLEWIGIIGSNGRTYYPDSVKGRFTISRDNSKNTVTLQMNSLRAEDTAVYYCARGLYDGTGNIWGQGTLVTVSS VL: DLQMTQSPSSLSASVGDRVTITCRASQSVYGNNWLSWYQQKPGKAPKLLIYGASKLASGVPSRFSGSGSGTQFTLTISSLQPEDFATYYCQGTYYSGDWYFAFGQGTKVEIKR | 501000 MFI | 3.2 nM | 351000 MFI | 3.3 nM | 7.81 nM | 0.000422 s⁻¹ | 54000 M⁻¹ s⁻¹ | 20.1 nM | 0.00166 s⁻¹ | 82700 M⁻¹ s⁻¹ | – | – | – | – | – |
| mAb 48: aTF_2842-B01_HC1_Y180/F404TAG; aTF_2842-B01_LC3 (antibody, IgG1, V domains shown, non-natural amino acid (pAMF) at TAG sites Y180 and F404 (EU), * in the sequence, unconjugated full-length IgG1/kappa; also called 2842-B01 HC1/LC3) VH: QVQVVESGGGLVKPGGSLRLSCAASGFSISSYDMSWIRQAPGKGLEWIGIIGSNGRTYYADSVKGRFTISRNTNENTVYLQMNSLRAEDTAVYYCARGLYDGTGNIWGQGTLVTVSS VL: DIQMTQSPSSLSASVGDRVTITCQASQSVYGNNWLSWYQQKPGKAPKLLIYGASKLASGVPSRFSGSGSGTDFTLTISSLQPEDFATYYCQGTYYSGDWYFAFGGGTKVEIKR | 486000 MFI | 3.4 nM | 318000 MFI | 2.3 nM | 17.4 nM | 0.00124 s⁻¹ | 71200 M⁻¹ s⁻¹ | 60.7 nM | 0.00735 s⁻¹ | 121000 M⁻¹ s⁻¹ | – | – | – | – | – |
| SRP2799-B03 (antibody, IgG1, V domains shown, also called SRP2799-B03 (parent)) VH: EVQLVESGGGLVQPGGSLRLSCAASGFNISDYWIHWVRQAPGKGLEWVGFIDPYNGYTNYADSVKGRFTISADTSKNTAYLQMNSLRAEDTAVYYCARGYGSWPDYLDYWGQGTLVTVSS VL: not shown | – | – | – | – | – | – | – | – | – | – | 0.00415 s⁻¹ | 0.00169 s⁻¹ | 45400 MFI | 4.7 nM | 2.41% |
| SRP2799-B06 (antibody, IgG1, V domains shown, also called SRP2799-B06 (parent)) VH: EVQLVESGGGLVQPGGSLRLSCAASGFNISDYNIHWVRQAPGKGLEWVGYIDPSNGYTYYADSVKGRFTISADTSKNTAYLQMNSLRAEDTAVYYCARDDQSVSSPFDYWGQGTLVTVSS VL: not shown | – | – | – | – | – | – | – | – | – | – | 0.00827 s⁻¹ | 0.00166 s⁻¹ | 46300 MFI | 4.1 nM | -1.01% |
